Source: paper PMC3091952

Experiments:
Test in all cases: pull-down
[1] = target: PAD4 R484Q, labelled with BFA (human) (UniProt Q9UM07)
[2] = target: PAD4 R123Q, labelled with BFA (human) (UniProt Q9UM07)
[3] = target: PAD4 R419Q, labelled with BFA (human) (UniProt Q9UM07)
[4] = target: PAD4 R609Q, labelled with BFA (human) (UniProt Q9UM07)
[5] = target: PAD4 R639Q, labelled with BFA (human) (UniProt Q9UM07)

Substance	fold decrease of affinity against wild type PAD4 [1] [fold]	fold decrease of affinity against wild type PAD4 [2] [fold]	fold decrease of affinity against wild type PAD4 [3] [fold]	fold reduction of affinity against wild type PAD4 [1] [fold]	fold reduction of affinity against wild type PAD4 [2] [fold]	fold reduction of affinity against wild type PAD4 [4] [fold]	fold reduction of affinity against wild type PAD4 [5] [fold]
Histone Deacetylase 1 (HDAC1) (from UniProt Q13547 1-482) (enzyme)	1.4	3.3	1.4				
Protein Arginine Methyltransferase 1 (PRMT1) (from UniProt Q99873 1-371) (enzyme)				10	2	3.3	5
